For experiment [1], the target named is CALRins5 (mutant calreticulin, 5 base pair insertion, Type 2) expressed with MPL on engineered cancer cells (UniProt P27797). The experiment in a line: cell-based or functional assay.
Experiment [2] deals with CALRdel52 (mutant calreticulin, 52 base pair deletion, Type 1) expressed with MPL on engineered cancer cells (UniProt P27797). The experiment in a line: cell-based or functional assay.

Substitutions are numbered along the chain they refer to.

CALRdel52 (mutant calreticulin, 52 base pair deletion, Type 1) expressed with MPL on engineered cancer cells, sequence (P27797 other isoform, or with tags, fused parts or gaps mutant limits assumed): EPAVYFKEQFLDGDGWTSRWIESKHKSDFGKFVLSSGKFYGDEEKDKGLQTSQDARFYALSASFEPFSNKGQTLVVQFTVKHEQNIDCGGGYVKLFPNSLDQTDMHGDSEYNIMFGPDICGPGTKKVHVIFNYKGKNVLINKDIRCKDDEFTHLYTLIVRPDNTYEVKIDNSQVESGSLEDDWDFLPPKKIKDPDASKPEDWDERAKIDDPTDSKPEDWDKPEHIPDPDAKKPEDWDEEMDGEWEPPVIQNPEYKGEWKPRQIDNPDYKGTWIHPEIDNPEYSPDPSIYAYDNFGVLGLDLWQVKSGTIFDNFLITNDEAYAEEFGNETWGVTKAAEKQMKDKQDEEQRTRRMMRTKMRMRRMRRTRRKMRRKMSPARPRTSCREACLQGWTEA
CALRins5 (mutant calreticulin, 5 base pair insertion, Type 2) expressed with MPL on engineered cancer cells, sequence (P27797 other isoform, or with tags, fused parts or gaps mutant limits assumed): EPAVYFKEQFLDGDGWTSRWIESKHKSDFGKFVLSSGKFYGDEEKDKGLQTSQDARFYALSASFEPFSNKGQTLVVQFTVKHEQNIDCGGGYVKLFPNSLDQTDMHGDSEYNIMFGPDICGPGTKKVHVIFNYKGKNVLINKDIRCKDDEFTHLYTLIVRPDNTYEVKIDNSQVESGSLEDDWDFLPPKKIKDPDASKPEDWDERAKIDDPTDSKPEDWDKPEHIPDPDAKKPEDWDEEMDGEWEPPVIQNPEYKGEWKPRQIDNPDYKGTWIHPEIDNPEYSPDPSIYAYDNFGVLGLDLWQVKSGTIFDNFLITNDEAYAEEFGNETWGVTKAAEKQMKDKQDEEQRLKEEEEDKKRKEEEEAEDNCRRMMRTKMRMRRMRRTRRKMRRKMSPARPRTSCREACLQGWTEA

B1: CALRB114 (MP1001 Fab x CD3W245-HL-scFv, high affinity) (bispecific antibody, part only; not given: CD3 scFv arm and IgG1 constant regions, V domains shown, not shown: another chain or arm of the molecule; a dimerising Fc or GST; small tags and cut ends)
VH: QEQLKESGGRLVTPGTPLTLTCAVSGFSLDIYGMSWVRQAPGKGLEWIGIIYIEGITYYANWAKGRFTISKTSSTTLELKMTSLTTEDTAMYFCVAGVGRIWGPGTLVTVSS
VL: YVMMTQTPSSVSAAVGGTVTINCQASQSLYNNNNLAWFQQKPGQPPKRLIYPASTLASGVSSRFKGSGSGTQFTLTISDVQSDDAATYFCLGEFSCSSADCYAFGGGTEVVVK
In experiment [1], B1 yielded a Cytotoxicity EC50, K562 MPL CALRins5 cells of 0.0163 µg/mL and a Cytotoxicity EC50, OCI-M2 MPL CALRins5 cells of 0.0235 µg/mL. In addition, in experiment [2], the Cytotoxicity EC50, K562 MPL CALRdel52 cells is 0.0112 µg/mL and the Cytotoxicity EC50, OCI-M2 MPL CALRdel52 cells was found to be 0.0168 µg/mL.

B2: CALRB74 (MP1001 Fab x CD3W245-LH-scFv, medium affinity) (bispecific antibody, part only; not given: CD3 scFv arm and IgG1 constant regions, V domains shown, not shown: another chain or arm of the molecule; a dimerising Fc or GST; small tags and cut ends)
VL: B1 VL
VH: B1 VH
For the molecule B2, in experiment [1], the Cytotoxicity EC50, K562 MPL CALRins5 cells was determined as 0.0304 µg/mL and the Cytotoxicity EC50, OCI-M2 MPL CALRins5 cells worked out at 0.0322 µg/mL. In experiment [2], this molecule showed a Cytotoxicity EC50, K562 MPL CALRdel52 cells of 0.0521 µg/mL and a Cytotoxicity EC50, OCI-M2 MPL CALRdel52 cells of 0.0253 µg/mL.

B3: CALRB118 (MP1016C Fab x CD3W245-HL-scFv, high affinity) (bispecific antibody, part only; not given: CD3 scFv arm and IgG1 constant regions, V domains shown, not shown: another chain or arm of the molecule; a dimerising Fc or GST; small tags and cut ends)
VL: DPVLTQTESPVSAAVGGTVTINCQASQSVYDDNNLAWYQQKPGQPPKRLIYPASTLASGVSSRFSGSGSGSQFTLTISDVQSDDAATYYCQGEFSCTSADCVAFGGGTEVVVK
VH: QEQLKESGGRLVTPGTPLTLTCTASGFSLSNYYMSWVRQAPGKGLEWIGGISSRAGTWYASWAKGRFTISGTSSTTMDLKITSPTTEDTATYFCARGLKIWGPGTLVTVSS
In experiment [1], B3 registered a Cytotoxicity EC50, K562 MPL CALRins5 cells of 0.0157 µg/mL and a Cytotoxicity EC50, OCI-M2 MPL CALRins5 cells of 0.0136 µg/mL. Besides, in experiment [2], the Cytotoxicity EC50, K562 MPL CALRdel52 cells came out at 0.0099 µg/mL and the Cytotoxicity EC50, OCI-M2 MPL CALRdel52 cells is 0.505 µg/mL.

B4: CALRB79 (MP1016 Fab x CD3W245-LH-scFv, medium affinity) (bispecific antibody, part only; not given: anti-CD3 scFv arm, constant regions, V domains shown, not shown: another chain or arm of the molecule; a dimerising Fc or GST; small tags and cut ends)
VL: B3 VL
VH: QEQLKESGGRLVTPGTPLTLTCTASGFSLSNYYMSWVRQAPGKGLEWIGGISSRAGTWYASWAKGRFTISGTSTTMDLKITSPTTEDTATYFCARGLKIWGPGTLVTVSS
In experiment [1], B4 returned a Cytotoxicity EC50, K562 MPL CALRins5 cells of 0.0416 µg/mL and a Cytotoxicity EC50, OCI-M2 MPL CALRins5 cells of 0.0911 µg/mL. In experiment [2], the Cytotoxicity EC50, K562 MPL CALRdel52 cells was 0.0444 µg/mL and the Cytotoxicity EC50, OCI-M2 MPL CALRdel52 cells came out at 0.112 µg/mL.

B5: CALRB119 (MP1016 Fab x CD3W245-HL-scFv, high affinity) (bispecific antibody, part only; not given: anti-CD3 scFv arm, constant regions, V domains shown, not shown: another chain or arm of the molecule; a dimerising Fc or GST; small tags and cut ends)
VL: B3 VL
VH: B4 VH
Consider B5, for which, in experiment [1], the Cytotoxicity EC50, K562 MPL CALRins5 cells came out at 0.0104 µg/mL and the Cytotoxicity EC50, OCI-M2 MPL CALRins5 cells stood at 0.0225 µg/mL. In experiment [2], the Cytotoxicity EC50, K562 MPL CALRdel52 cells came to 0.0064 µg/mL and the Cytotoxicity EC50, OCI-M2 MPL CALRdel52 cells was found to be 0.504 µg/mL.

B6: CALRB78 (MP1016C Fab x CD3W245-LH-scFv, medium affinity) (bispecific antibody, part only; not given: anti-CD3 scFv arm, constant regions, V domains shown, not shown: another chain or arm of the molecule; a dimerising Fc or GST; small tags and cut ends)
VL: B3 VL
VH: B3 VH
In experiment [1], B6 registered a Cytotoxicity EC50, K562 MPL CALRins5 cells of 0.0648 µg/mL and a Cytotoxicity EC50, OCI-M2 MPL CALRins5 cells of 0.0792 µg/mL. In experiment [2], this molecule gave a Cytotoxicity EC50, K562 MPL CALRdel52 cells of 0.0393 µg/mL and a Cytotoxicity EC50, OCI-M2 MPL CALRdel52 cells of 0.0581 µg/mL.

B7: CALRB120 (MP1018C Fab x CD3W245-HL-scFv, high affinity) (bispecific antibody, part only; not given: CD3 scFv arm and IgG1 constant regions, V domains shown, not shown: another chain or arm of the molecule; a dimerising Fc or GST; small tags and cut ends)
VL: DVVMTQTPSSVSAAVGGTVTINCQASQSLYNNKNLAWYQQKPGQPPKLLIYYASALASGVSSRFKGSGSGTQFTLTISGVQSDDAATYYCQGEFNCNSADCNSFGGGTEVVVK
VH: QSVEESGGRLVTPGTPLTITCTVSGFSLSSYAMSWVRQAPGKGLEWIGVIDSGGTTYYATWAKSRFTISKTSSTKVALKITSPTTEDTATYFCARESYAGYDGYGHPIPYGMDPWGPGTLVTVSS
On to B7, for which, in experiment [1], the Cytotoxicity EC50, K562 MPL CALRins5 cells turned out to be 0.0119 µg/mL and the Cytotoxicity EC50, OCI-M2 MPL CALRins5 cells came to 0.0145 µg/mL. Further, in experiment [2], the Cytotoxicity EC50, K562 MPL CALRdel52 cells worked out at 0.0077 µg/mL and the Cytotoxicity EC50, OCI-M2 MPL CALRdel52 cells came out at 0.0091 µg/mL.

B8: CALRB80 (MP1018C Fab x CD3W245-LH-scFv, medium affinity) (bispecific antibody, part only; not given: CD3 scFv arm and IgG1 constant regions, V domains shown, not shown: another chain or arm of the molecule; a dimerising Fc or GST; small tags and cut ends)
VL: B7 VL
VH: B7 VH
In the case of B8, in experiment [1], the Cytotoxicity EC50, K562 MPL CALRins5 cells came to 0.0434 µg/mL and the Cytotoxicity EC50, OCI-M2 MPL CALRins5 cells was found to be 0.0212 µg/mL. In experiment [2], the Cytotoxicity EC50, K562 MPL CALRdel52 cells came out at 0.0401 µg/mL and the Cytotoxicity EC50, OCI-M2 MPL CALRdel52 cells stood at 0.0205 µg/mL.

B9: CALRB75 (MP1004 Fab x CD3W245-LH-scFv, medium affinity) (bispecific antibody, part only; not given: CD3 scFv arm and IgG1 constant regions, V domains shown, not shown: another chain or arm of the molecule; a dimerising Fc or GST; small tags and cut ends)
VL: DPMLTQTPSSVSAAVGGTVTINCQSSQSVYNNNWLSWLQQKPGQPPNRLIYDASKLESGVPSRFSGSGSGTQFTLTISGVQSDDAATYYCAGGFTGNVYTFGGGTEVVVK
VH: QEQLEESGGRLVTPGTPLTLTCKVSGIDLSNNAISWVRQAPGKGLEYIGVIGNTGDTYYASWAKGRFTISKTSSTTVDLKMTSLTTEDTATYFCVRGPPSYSNSVKNIWGPGTLVTISS
With B9, in experiment [1], the Cytotoxicity EC50, K562 MPL CALRins5 cells was determined as 0.116 µg/mL and the Cytotoxicity EC50, OCI-M2 MPL CALRins5 cells was 0.129 µg/mL. In addition, in experiment [2], the Cytotoxicity EC50, K562 MPL CALRdel52 cells was found to be 0.193 µg/mL and the Cytotoxicity EC50, OCI-M2 MPL CALRdel52 cells is 0.115 µg/mL.

B10: CALRB76 (MP1007 Fab x CD3W245-LH-scFv, medium affinity) (bispecific antibody, part only; not given: CD3 scFv arm and IgG1 constant regions, V domains shown, not shown: another chain or arm of the molecule; a dimerising Fc or GST; small tags and cut ends)
VL: B9 VL with N22G, N31D, L38Y, E57A, Q81K, F94Y, T100S, E106M, V108E, V109I
VH: QQLEESGGRLVAPGTPLRLTCTVSGIDLSNNAVSWVRQAPGKGLEYIGVIGNTGTTYYANWAKGRFTISKTSSTTVDLKMTSLTTDDTATYFCVRGPPSYSNSVRNIWGPGTLVTVSS
In experiment [1], B10 showed a Cytotoxicity EC50, K562 MPL CALRins5 cells of 0.107 µg/mL and a Cytotoxicity EC50, OCI-M2 MPL CALRins5 cells of 0.189 µg/mL. In experiment [2], this molecule showed a Cytotoxicity EC50, K562 MPL CALRdel52 cells of 0.0633 µg/mL and a Cytotoxicity EC50, OCI-M2 MPL CALRdel52 cells of 0.0897 µg/mL.

B11: CALRB77 (MP1010 Fab x CD3W245-LH-scFv, medium affinity) (bispecific antibody, part only; not given: anti-CD3 scFv arm, constant regions, V domains shown, not shown: another chain or arm of the molecule; a dimerising Fc or GST; small tags and cut ends)
VL: B9 VL with N22G, N31D, N32K, L38Y, N47S, A85V, T100A
VH: B10 VH with Q2S, L3V, A12T, R18T, V33I, T55D, N60S, D86E, R105K, V116I
On to B11, for which, in experiment [1], the Cytotoxicity EC50, K562 MPL CALRins5 cells is 0.414 µg/mL and the Cytotoxicity EC50, OCI-M2 MPL CALRins5 cells was 0.189 µg/mL. Also, in experiment [2], the Cytotoxicity EC50, K562 MPL CALRdel52 cells came to 0.195 µg/mL and the Cytotoxicity EC50, OCI-M2 MPL CALRdel52 cells came to 0.183 µg/mL.

B12: CALRB116 (MP1007 Fab x CD3W245-HL-scFv, high affinity) (bispecific antibody, part only; not given: anti-CD3 scFv arm, constant regions, V domains shown, not shown: another chain or arm of the molecule; a dimerising Fc or GST; small tags and cut ends)
VH: B10 VH
VL: B9 VL with N22G, N31D, L38Y, E57A, Q81K, F94Y, T100S, E106M, V108E, V109I
B12: in experiment [1], the Cytotoxicity EC50, K562 MPL CALRins5 cells was determined as 0.0953 µg/mL and the Cytotoxicity EC50, OCI-M2 MPL CALRins5 cells was 0.0392 µg/mL. Also, in experiment [2], the Cytotoxicity EC50, K562 MPL CALRdel52 cells was found to be 0.0243 µg/mL and the Cytotoxicity EC50, OCI-M2 MPL CALRdel52 cells turned out to be 0.0802 µg/mL.

B13: CALRB117 (MP1010 Fab x CD3W245-HL-scFv, high affinity) (bispecific antibody, part only; not given: anti-CD3 scFv arm, constant regions, V domains shown, not shown: another chain or arm of the molecule; a dimerising Fc or GST; small tags and cut ends)
VH: B10 VH with Q2S, L3V, A12T, R18T, V33I, T55D, N60S, D86E, R105K, V116I
VL: B9 VL with N22G, N31D, N32K, L38Y, N47S, A85V, T100A
As for B13, in experiment [1], the Cytotoxicity EC50, K562 MPL CALRins5 cells is 0.0741 µg/mL and the Cytotoxicity EC50, OCI-M2 MPL CALRins5 cells stood at 0.0481 µg/mL. In addition, in experiment [2], the Cytotoxicity EC50, K562 MPL CALRdel52 cells was determined as 0.0403 µg/mL and the Cytotoxicity EC50, OCI-M2 MPL CALRdel52 cells turned out to be 0.0598 µg/mL.

These data come from patent publication US20260125457A1 (Janssen / Centocor, published 2026).
